9 sequences from a protein production outcome set (Wang et al. 2014) can be followed below.

A short description of this data set: label from the status in PepcDB records.
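Further: failed if final PepcDB status was selected cloned or expressed and not failed if soluble or beyond.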

As to “MKPDIYENNREGILCVYKNEKWLVCIKNWKPDNDIEGIAHLEIHHSTDEQFILSAGKAILITAEKENDKFNIELTLMEKGKVYNVPAECWFYSITQKDTKMMYVQDSNCSMDNSDFCDLSKEEIEYIQTNARKLFEK”, the protein production result is reported as “not failed”. In the case of “MKPLKEYLLIPTQMRVFETQTQAIETSLSVNAQTSESSEAFTVKKDPHEIKVTGKKSGESELVYDLAGFPIKKTKVHVLPDLKVIPGGQSIGVKLHSVGVLVGFHQINTSEGKKSPGETAGIEAGDIIIEMNGQKIEKMNDVAPFIQKAGKTGESLDLLIKRDKQKIKTKLIPEKDEGEGKYRIGLYIRDSAAGIGTMTFYEPKTKKYGALGHVISDMDTKKPIVVENGEIVKSTVTSIEKGTGGNPGEKLARFSSERKTIGDINRNSPFGIFGTLHQPIQNNISDQALPVAFSTEVKKGPAEILTVIDDDKVEKFDIEIVSTTPQKFPATKGMVLKITDPRLLKETGGIVQGMSGSPIIQNGKVIGAVTHVFVNDPTSGYGVHIEWMLSEAGIDIYGKEKASLEHHHHHH” it was “not failed”; in that of “MKPNNVNNQNKRHQSRWVITSATAMILTTLTIASQAAAADDTVTTTTNEPTNSQLNTNTQVNATQVNLKADTSTSVSTIKSDQSAVAATSPTTSTGSPSEHSSSVNTNPQQQSANPASQSQATTTSESTPTTDIKHPTQTAPAQTTSASTTEPTTESNTESATDSQAKATTTDNQASKQPSQQAVPASSNSTTTEVNTQSATSSASTDDKIVTNVNQEKLVLKTNQPVVRAISRTASENINDWMPNTLLQQEVLSQLRKQNPDRTWNSAADITKADMLLLTTYYGKDTYIDGKTSYSLEGLQYATNLTTVWLNNNLNAPSGSYYSDVTDISPLANLQKLQVVNIQQNRITDISPLANLKNLTEVDAAYNHISDFSPLKGFKNLKGTFSNQFITLPPAYISADNNIATLAIDCYLPDGSKVQLKPNNGVGETVFYKNGQLYVRWYFNGAGGGNYDSNGHIYYTNMKPQQPGLTGPTFNGTTVIPMDDYYFMTAASDGNNFVVVRPYVLAATAAPITVKYVDALTGESLVTADLTLNGIVGQPYTTQRIDDELPNYDFTNIVGNASGVFTADAQTVTYYYTRKDAGDITIHMVDTNGNLVYEPQILPGKHNLGNAYNLDAPTFDHFKLHQTIGNAAGVFTTDPQSITFVYVRLDAGNITVKYQDKQGHQLKPDKTVSGSQSLGQTYTTEPLGIENYTLMTTPANATGTFTDQEQTVIYVYVRRDAGQIVVKYQDSAGNPLAPDKLLDGKEQLGVAYQTAAISIPNFYLVATPANATGTFSTDTQTVIYQYARSNAGHITVKYQDANGTTLAPDDVLTGDGQLGRPYQTSAKTIENYRLIQTPANATGQFSDQAQTVIYVYTREDAGDITVQYLDENGQQLAADSVLSGQGQLGQPYETSPLNINGYTVKSTQGNTTGTYTVQPQRVVYIYERTAGQPVTAKYQDQDGKSIHPDVVHSGYLGDNYSTEQLVIDGYTFKAVQGDVSGTFGTSAKTVTYVYTESTPTIPDTQGTVTVHYVTKDGIKLNEPTVLSGKTGTTYQTVPLTFTDHELVGQPENATGLFTADNVDVTYVYQATDTTGTDDIIDPEEPEQPTKPIKPTTPETPNEPGTTVTQPDRIKPTQPAVAVKPAATVKPTLKPAAAQASLVKTTSPVTEHSAQLPQTDEQTGKLAVILGLLLSVVTLGFYGKNRQS”, “failed”; in that of “MKPQVYHVDAFTSQPFRGNSAGVVFPADNLSEAQMQLIARELGHSETAFLLHSDDSDVRIRYFTPTVEVPICGHATVAAHYVRAKVLGLGNCTIWQTSLAGKHRVTIEKHNDDYRISLEQGTPGFEPPLEGETRAAIINALHLTEDDILPGLPIQVATTGHSKVMIPLKPEVDIDALSPDLNALTAISKKIGCNGFFPFQIRPGKNETDGRMFSPAIGIVEDPVTGNANGPMGAWLVHHNVLPHDGNVLRVKGHQGRALGRDGMIEVTVTIRDNQPEKVTISGTAVILFHAEWAIEL”, “not failed”. Next, “MKPSCRPGAALEADRCPSFPDRSAATPHRGLAWAMAVVLIGGCATTRDIEQLQTTSQREPTNAQLKLKYMDERDRQVKDLLDGADRLRLIHDFDRAQVLLLQALRLDPGNERGRRIAAAIDVDRRNGAVLQEAERMMARGSYDGAAERVERVLAETPNDAGALRLYREISEKRRLQKQAAEEKNAAASIMRKPVSLQFRDANVRMVFEALSRTTGLSVIFDRDVRVDLKTTIFVSNASLEDTVDMILLQNQLAKKVLNANTVFIYPATPAKQQEYQDLKVRTFQLSNTDAKHIDTLLKNLLKIKEIVTDERANTVSIRATPETIRVAERMIAAQDLPEPEVMLEVEVLEVSRDRLTDLGIDWPNSFSLGTPSSASTWGALHHLTVNQLTASGLSVTANLKLTDTDANLLASPRIRTRNKEKAKILIGDKVPVISSSSVPSTSGPVYSQSIQYLDVGIKLEVEPQVYRDNDVGIKMSLEVSNITQIISSSNAQTGLSSLAYQIGTRNASTTLRLKDGETQILGGLIQDEDRDAANKVPGLGQLPVLGRLFSNHNGDHKKTEIVLQITPHIVRPQLAADADTREIWSGTDSTVRTEQLRLDPPGVAAPATPAAPAAPAAALPAPAAGVAVVSPGAVGGGTTGGEQTPKAAAPAAAGGVVPPNGAFGQPPAAPRTTPPPAMFGGRFMTTVPPPEGVVPPAPPAPAAAPAAVAAPAAAAPAAPAAGTAGPEAAAAVSPTEAAPPAPAPAAPYTPAPAAPAAAPPAASPPPIVPTPPSDMPSDNPLHPIPTGAY”: “failed”. As to “MKPSTEWWRYLAPLAVIAIIALLPVPAGLENHTWLYFAVFTGVIVGLILEPVPGAVVAMVGISIIAILSPWLLFSPEQLAQPGFKFTAKSLSWAVSGFSNSVIWLIFAAFMFGTGYEKTGLGRRIALILVKKMGHRTLFLGYAVMFSELILAPVTPSNSARGAGIIYPIIRNLPPLYQSQPNDSSSRSIGSYIMWMGIVADCVTSAIFLTAMAPNLLLIGLMKSASHATLSWGDWFLGMLPLSILLVLLVPWLAYVLYPPVLKSGDQVPRWAETELQAMGPLCSREKRMLGLMVGALVLWIFGGDYIDAAMVGYSVVALMLLLRIISWDDIVSNKAAWNVFFWLASLITLATGLNNTGFISWFGKLLAGSLSGYSPTMVMVALIVVFYLLRYFFASATAYTSALAPMMIAAALAMPEIPLPVFCLMVGAAIGLGSILTPYATGPSPIYYGSGYLPTADYWRLGAIFGLIFLVLLVITGLLWMPVVLL”, the protein production entry was “failed”. Next, “MKPTMMTYINEEEEMCRVILADFQTNAEKLESLVKNGAKEWLILATGSSLNAAQSAKYYIENLADVRITIEEPFNHLYYEKLSSHLDLVIGISQSGQSTSTISALERVKKEASVPVVALTSDVTSEIAEFADITLDIGSGKERVGYVTKGFTATVLTLMLTGLHFAYKTVQIDETRFNNEISAFSRAIDAIPATIAETEAFYERWQEEFATAPKFTAIGYGPTVGTCKEFETKFSETVRVPSQGLDLEAFMHGPYLEVNPQHRIFFLETASAVTERLVLLRDYESKYTPFTYTVKFGKGEDDRTLVIPTDLDEYQAPFLMILPFQILAHHIAELKGNKLTERIYTDFGVAMKSKTKPGDYA”: “not failed”. In the case of “MKPTNKAQDDDAVFALSTEVNHKLDLHQSSAEALRLAGVYTRQSCVLDLYHGYRSDDEDTEPDEEDGRLQTVREYHENGMLKLMRTFVRRLRRDATDPTAESSYYDRVVEEKHYDPSGICRVDMHFALGQPYLYRKHYYPNNRLKSEKVFFVEDEETMRARKVGHWRTYYENGNIQSEIIYNKDGVRCGFCKRYAIDGAIEWVKDYTREQEERLQAFNAKRGNLDLTVTDAARVLGLEGDWCSHVVNRTFRSKCAPLHPDWRRTAGDKAGETWEEEQRTEAFIRLSRAREVLLKFLETHPRECSCERGGA” it was “not failed”. In the case of “MKPVFLDFEQPIAELTNKIDELRFVQDESAVDISDEIHRLQKKSNDLTKSIFSKLTPAQISQVSRHPQRPYTLDYIEALFTDFEELHGDRHFADDYAIVGGLARFNGQSVMVVGHQKGRDTKEKIRRNFGMPRPEGYRKALRLMKTAEKFGLPVMTFIDTPGAYPGIGAEERGQSEAIGKNLYELTRLRVPVLCTVIGEGGSGGALAVALGDYVNMLQYSTYSVISPEGCASILWKTAEKAADAAQALGITADRLQKLDLVDTVIKEPLGGAHRDFGQTMKNVKAVLEKQLHEAQSIPLADLLSRRFDRIMAYGKFSEQ” it was “not failed”.
